# Laboratory results published in patent US20080220446A1, “Method for Detecting and/or Removing Protein and/or Peptide Comprising a Cross-Beta Structure From an Aqueous Solution Comprising a Protein” (priority 2005, published 2008).
# B1: recombinant β2GPI: recombinant human β2-glycoprotein I made using insect cells (protein)
# chain: GRTCPKPDDLPFSTVVPLKTFYEPGEEITYSCKPGYVSRGGMRKFICPLTGLWPINTLKCTPRVCPFAGILENGAVRYTTFEYPNTISFSCNTGFYLNGADSAKCTEEGKWSPELPVCAPIICPPPSIPTFATLRVYKPSAGNNSLYRDTAVFECLPQHAMFGNDTITCTTHGNWTKLPECREVKCPFPSRPDNGFVNYPAKPTLYYKDKATFGCHDGYSLDGPEEIECTKLGNWSAMPSCKASCKVPVKKATVVYQGERVKIQEKFKNGMLHGDKVSFFCKNKEKKCSYTEDAQCIDGTIEVPKCFKEHSSLAFWKTDASDVKPC
# Columns and labels:
# Fn F4-5 = biological target: T1, Fn F4-5 (Homo sapiens, UniProt P02751); experiment: Biacore surface plasmon resonance, binding to immobilized Fn F4-5
# T1 construct: amino-acids NH2—I182-V276-COOH of Fn F4-5; made in house; host or cells: Saccharomyces cerevisiae
# T1 sequence (P02751 182-276): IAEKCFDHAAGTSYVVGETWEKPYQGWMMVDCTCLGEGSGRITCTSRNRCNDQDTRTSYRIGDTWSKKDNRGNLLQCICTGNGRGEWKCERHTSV
# Method: Binding of cross-β structure containing peptides/proteins was studied using surface plasmon resonance technology with a Biacore 2000 apparatus (Biacore AB, Uppsala, Sweden). A standardized amine coupling procedure was used to couple proteins with F domains to a CM5 chip (Biacore AB, Uppsala, Sweden). First, the dextran surface of the chips was activated by a 35 μl injection with a 1:1 mixture of 0.1 M N-hydroxysuccinimide (NHS) and 0.4 M N-ethyl-N′-(dimethylaminopropyl)carbodiimide (EDC) at a flow rate of 5 μl min.^−1. Then, the proteins were covalently coupled to the activated dextran surface. Remaining activated groups in each of the four flow channels were blocked by injection of 35 μl of 1 M ethanolamine hydrochloride pH 8.5. EDC, NHS and ethanolamine hydrochloride were obtained from Biacore. On one chip, on channels 1 to 4, buffer (reference channel), the soluble extracellular part of receptor for advanced glycation endproducts (sRAGE), tPA and K2P-tPA were immobilized. […] Binding of albumin-AGE was determined with a solution of 3.9 μg ml^−1 albumin-AGE in running buffer. albumin-AGE was filtered on a Millex-GV 0.22 μm filter unit (Millipore). […] Binding of Hb-AGE was also tested after centrifugation for 10 min. at 16,000*g alternative to filtration. tPA activation before and after filtration was assessed with a Plg-activation assay. […]
# tPA = tPA (Homo sapiens, UniProt P00750); experiment: ELISA, binding of β2GPI to immobilized tPA
# Chain of tPA (P00750 36-562): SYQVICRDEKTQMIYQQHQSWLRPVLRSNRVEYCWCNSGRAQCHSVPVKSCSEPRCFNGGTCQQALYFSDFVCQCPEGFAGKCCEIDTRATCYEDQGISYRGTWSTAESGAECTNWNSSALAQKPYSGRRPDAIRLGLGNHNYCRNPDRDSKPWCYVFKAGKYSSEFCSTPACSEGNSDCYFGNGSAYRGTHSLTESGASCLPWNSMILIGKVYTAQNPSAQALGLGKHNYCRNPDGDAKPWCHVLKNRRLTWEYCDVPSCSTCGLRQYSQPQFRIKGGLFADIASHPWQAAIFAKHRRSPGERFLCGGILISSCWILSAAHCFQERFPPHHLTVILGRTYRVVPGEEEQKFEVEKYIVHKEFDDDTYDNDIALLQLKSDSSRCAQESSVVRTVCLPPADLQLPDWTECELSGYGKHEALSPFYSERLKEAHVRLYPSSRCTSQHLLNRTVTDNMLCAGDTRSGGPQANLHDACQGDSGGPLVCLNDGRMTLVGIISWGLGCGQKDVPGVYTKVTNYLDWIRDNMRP
# Method: Binding of purified human factor XII from plasma (Calbiochem) or of purified recombinant human tPA to β2GPI purified from human plasma, or to recombinant human β2GPI was tested in an ELISA. Ten μg of factor XII or tPA in PBS was coated onto wells of a Costar 2595 ELISA plate (Cambridge, USA) and incubated with concentration series of the two β2GPI preparations. Binding of β2GPI was assessed with monoclonal antibody 2B2^22.
molecule,measurement,setting,value
B1,binding to the Fn F4-5 doublet,"Fn F4-5; Biacore, native Hb at 25 nM",bound
same,Kd,"Fn F4-5; immobilized Fn F4-5, Biacore CM5 chip, read-out: concentration of ligand that results in half maximum binding to Fn F4-5",165 nM
same,binding to tPA,tPA,bind
